Data reported in patent publication US20220242906A1 (AGENCY FOR SCIENCE TECHNOLOGY AND RESEARCH, published 2022).

B1: EE-19 (peptide)
peptide: ACDMGFFQDCG
HELM: PEPTIDE1{A.C.D.M.G.F.F.Q.D.C.G.[am]}$PEPTIDE1,PEPTIDE1,2:R3-10:R3$$$V2.0
SMILES: CSCC[C@@H]1NC(=O)[C@H](CC(=O)O)NC(=O)[C@@H](NC(=O)[C@H](C)N)CSSC[C@@H](C(=O)NCC(N)=O)NC(=O)[C@H](CC(=O)O)NC(=O)[C@H](CCC(N)=O)NC(=O)[C@H](Cc2ccccc2)NC(=O)[C@H](Cc2ccccc2)NC(=O)CNC1=O
notes: EE-02 with E3D
B2: EE-30 (ACEMGYFQDCG) (peptide)
peptide: ACEMGYFQDCG
HELM: PEPTIDE1{A.C.E.M.G.Y.F.Q.D.C.G.[am]}$PEPTIDE1,PEPTIDE1,2:R3-10:R3$$$V2.0
SMILES: CSCC[C@@H]1NC(=O)[C@H](CCC(=O)O)NC(=O)[C@@H](NC(=O)[C@H](C)N)CSSC[C@@H](C(=O)NCC(N)=O)NC(=O)[C@H](CC(=O)O)NC(=O)[C@H](CCC(N)=O)NC(=O)[C@H](Cc2ccccc2)NC(=O)[C@H](Cc2ccc(O)cc2)NC(=O)CNC1=O
notes: EE-02 with F6Y
B3: EE-39 (ACEMGFFKDCG) (peptide)
peptide: ACEMGFFKDCG
HELM: PEPTIDE1{A.C.E.M.G.F.F.K.D.C.G.[am]}$PEPTIDE1,PEPTIDE1,2:R3-10:R3$$$V2.0
SMILES: CSCC[C@@H]1NC(=O)[C@H](CCC(=O)O)NC(=O)[C@@H](NC(=O)[C@H](C)N)CSSC[C@@H](C(=O)NCC(N)=O)NC(=O)[C@H](CC(=O)O)NC(=O)[C@H](CCCCN)NC(=O)[C@H](Cc2ccccc2)NC(=O)[C@H](Cc2ccccc2)NC(=O)CNC1=O
notes: EE-02 with Q8K
B4: EE-41 (ACEMGFFLDCG) (peptide)
peptide: ACEMGFFLDCG
HELM: PEPTIDE1{A.C.E.M.G.F.F.L.D.C.G.[am]}$PEPTIDE1,PEPTIDE1,2:R3-10:R3$$$V2.0
SMILES: CSCC[C@@H]1NC(=O)[C@H](CCC(=O)O)NC(=O)[C@@H](NC(=O)[C@H](C)N)CSSC[C@@H](C(=O)NCC(N)=O)NC(=O)[C@H](CC(=O)O)NC(=O)[C@H](CC(C)C)NC(=O)[C@H](Cc2ccccc2)NC(=O)[C@H](Cc2ccccc2)NC(=O)CNC1=O
notes: EE-02 with Q8L
B5: EE-31 (peptide)
peptide: ACEMGWFQDCG
HELM: PEPTIDE1{A.C.E.M.G.W.F.Q.D.C.G.[am]}$PEPTIDE1,PEPTIDE1,2:R3-10:R3$$$V2.0
SMILES: CSCC[C@@H]1NC(=O)[C@H](CCC(=O)O)NC(=O)[C@@H](NC(=O)[C@H](C)N)CSSC[C@@H](C(=O)NCC(N)=O)NC(=O)[C@H](CC(=O)O)NC(=O)[C@H](CCC(N)=O)NC(=O)[C@H](Cc2ccccc2)NC(=O)[C@H](Cc2c[nH]c3ccccc23)NC(=O)CNC1=O
notes: EE-02 with F6W
B6: EE-21 (peptide)
peptide: ACELGFFQDCG
HELM: PEPTIDE1{A.C.E.L.G.F.F.Q.D.C.G.[am]}$PEPTIDE1,PEPTIDE1,2:R3-10:R3$$$V2.0
SMILES: CC(C)C[C@@H]1NC(=O)[C@H](CCC(=O)O)NC(=O)[C@@H](NC(=O)[C@H](C)N)CSSC[C@@H](C(=O)NCC(N)=O)NC(=O)[C@H](CC(=O)O)NC(=O)[C@H](CCC(N)=O)NC(=O)[C@H](Cc2ccccc2)NC(=O)[C@H](Cc2ccccc2)NC(=O)CNC1=O
notes: EE-02 with M4L
B7: EE-37 (peptide)
peptide: ACEMGYYQDCG
HELM: PEPTIDE1{A.C.E.M.G.Y.Y.Q.D.C.G.[am]}$PEPTIDE1,PEPTIDE1,2:R3-10:R3$$$V2.0
SMILES: CSCC[C@@H]1NC(=O)[C@H](CCC(=O)O)NC(=O)[C@@H](NC(=O)[C@H](C)N)CSSC[C@@H](C(=O)NCC(N)=O)NC(=O)[C@H](CC(=O)O)NC(=O)[C@H](CCC(N)=O)NC(=O)[C@H](Cc2ccc(O)cc2)NC(=O)[C@H](Cc2ccc(O)cc2)NC(=O)CNC1=O
notes: EE-02 with F6Y and F7Y
B8: EE-36 (peptide)
peptide: ACEMGFWQDCG
HELM: PEPTIDE1{A.C.E.M.G.F.W.Q.D.C.G.[am]}$PEPTIDE1,PEPTIDE1,2:R3-10:R3$$$V2.0
SMILES: CSCC[C@@H]1NC(=O)[C@H](CCC(=O)O)NC(=O)[C@@H](NC(=O)[C@H](C)N)CSSC[C@@H](C(=O)NCC(N)=O)NC(=O)[C@H](CC(=O)O)NC(=O)[C@H](CCC(N)=O)NC(=O)[C@H](Cc2c[nH]c3ccccc23)NC(=O)[C@H](Cc2ccccc2)NC(=O)CNC1=O
notes: EE-02 with F7W
B9: EE-40 (peptide)
peptide: ACEMGFFGDCG
HELM: PEPTIDE1{A.C.E.M.G.F.F.G.D.C.G.[am]}$PEPTIDE1,PEPTIDE1,2:R3-10:R3$$$V2.0
SMILES: CSCC[C@@H]1NC(=O)[C@H](CCC(=O)O)NC(=O)[C@@H](NC(=O)[C@H](C)N)CSSC[C@@H](C(=O)NCC(N)=O)NC(=O)[C@H](CC(=O)O)NC(=O)CNC(=O)[C@H](Cc2ccccc2)NC(=O)[C@H](Cc2ccccc2)NC(=O)CNC1=O
notes: EE-02 with Q8G
B10: EE-35 (ACEMGFYQDCG) (peptide)
peptide: ACEMGFYQDCG
HELM: PEPTIDE1{A.C.E.M.G.F.Y.Q.D.C.G.[am]}$PEPTIDE1,PEPTIDE1,2:R3-10:R3$$$V2.0
SMILES: CSCC[C@@H]1NC(=O)[C@H](CCC(=O)O)NC(=O)[C@@H](NC(=O)[C@H](C)N)CSSC[C@@H](C(=O)NCC(N)=O)NC(=O)[C@H](CC(=O)O)NC(=O)[C@H](CCC(N)=O)NC(=O)[C@H](Cc2ccc(O)cc2)NC(=O)[C@H](Cc2ccccc2)NC(=O)CNC1=O
notes: EE-02 with F7Y
B11: EE-20 (peptide)
peptide: ACEIGFFQDCG
HELM: PEPTIDE1{A.C.E.I.G.F.F.Q.D.C.G.[am]}$PEPTIDE1,PEPTIDE1,2:R3-10:R3$$$V2.0
SMILES: CC[C@H](C)[C@@H]1NC(=O)[C@H](CCC(=O)O)NC(=O)[C@@H](NC(=O)[C@H](C)N)CSSC[C@@H](C(=O)NCC(N)=O)NC(=O)[C@H](CC(=O)O)NC(=O)[C@H](CCC(N)=O)NC(=O)[C@H](Cc2ccccc2)NC(=O)[C@H](Cc2ccccc2)NC(=O)CNC1=O
notes: EE-02 with M4I
B12: EE-23 (peptide)
peptide: ACEXGFFQDCG
HELM: PEPTIDE1{A.C.E.[O=C([C@H](CC1CCC1)N[*:1])[*:2]].G.F.F.Q.D.C.G.[am]}$PEPTIDE1,PEPTIDE1,2:R3-10:R3$$$V2.0
SMILES: C[C@H](N)C(=O)N[C@H]1CSSC[C@@H](C(=O)NCC(N)=O)NC(=O)[C@H](CC(=O)O)NC(=O)[C@H](CCC(N)=O)NC(=O)[C@H](Cc2ccccc2)NC(=O)[C@H](Cc2ccccc2)NC(=O)CNC(=O)[C@H](CC2CCC2)NC(=O)[C@H](CCC(=O)O)NC1=O
notes: EE-02 with M4 replaced by cyclobutylalanine
B13: EE-28 (peptide)
peptide: ACEMXFFQDCG
modifications: sarcosine (Sar) at position 5; free N-terminal amine; C-terminal amide; disulphide bond between Cys2 and Cys10
notes: EE-02 with G5 replaced by sarcosine
B14: EE-44 (CEMGFFADC) (peptide)
peptide: CEMGFFADC
HELM: PEPTIDE1{C.E.M.G.F.F.A.D.C.[am]}$PEPTIDE1,PEPTIDE1,1:R3-9:R3$$$V2.0
SMILES: CSCC[C@@H]1NC(=O)[C@H](CCC(=O)O)NC(=O)[C@@H](N)CSSC[C@@H](C(N)=O)NC(=O)[C@H](CC(=O)O)NC(=O)[C@H](C)NC(=O)[C@H](Cc2ccccc2)NC(=O)[C@H](Cc2ccccc2)NC(=O)CNC1=O
notes: EE-02 without A1 and G11 and with Q8A
B15: EE-22 (peptide)
peptide: ACEXGFFQDCG
modifications: norleucine (Nle) at position 4; free N-terminal amine; C-terminal amide; disulphide bond between Cys2 and Cys10
notes: EE-02 with M4 replaced by norleucine
B16: PHAGESOL (KKRYSRDQLVAL) (peptide)
peptide: KKRYSRDQLVAL
notes: Phage-derived linear peptive with the canonical motif; also called PHAGSOL; PhageSol peptide

Biological target: T1, elongation initiation factor 4E (eIF4E) (UniProt P06730 2-217, limits assumed)
T1 construct: mature; In SPR it was amine-coupled to a CM5 chip with m7GTP present; also called full-length eIF4E; GS-eIF4E (biotinylated form used only for phage panning)
T1 sequence (P06730 2-217 limits assumed): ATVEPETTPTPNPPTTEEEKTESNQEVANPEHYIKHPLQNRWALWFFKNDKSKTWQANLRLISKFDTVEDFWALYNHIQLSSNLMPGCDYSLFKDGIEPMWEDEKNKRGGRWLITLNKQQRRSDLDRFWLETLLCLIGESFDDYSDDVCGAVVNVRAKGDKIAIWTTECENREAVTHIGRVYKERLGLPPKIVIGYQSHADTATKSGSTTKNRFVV
Experiment: SPR (Biacore T100), eIF4E immobilised on CM5 chip, peptide as analyte
Method: Running buffer consisted of 10 mM Hepes pH 7.6, 0.15 M NaCl, and 0.1% Tween20. Stock/DMSO diluted peptide solutions were diluted into 1.03× running buffer to make a peptide solution with 3% DMSO final concentration. […] Surface Plasmon resonance experiments were performed on a Biacore T100 machine.
Pure eIF4E was immnobilized on a CM5 sensor chip. The CM5 chip was conditioned with a 6 s injection of 100 mM HCL, followed by a 6 s injection of 0.1% SDS and completed with a 6 s injection of 50 mM NaOH at a flow rate of 100 μl/min. Activation of the sensor chip surface was performed with a mixture of NHS (115 mg ml⁻¹) and EDC (750 mg ml⁻¹) for 7 min at 10 μl min⁻¹. Purified eIF4E was diluted with 10 mM sodium acetate buffer (pH 5.0) to a final concentration of 0.5 μM with m⁷GTP present in a 2:1 ratio in order to stabilize eIF4E. The amount of eIF4E immobilized on the activated surface was controlled by altering the contact time of the protein solution and was approximately 1000 RU. After the immobilization of the protein, a 7-min injection (at 10 μl min⁻¹) of 1 M ethanolamine (pH 8.5) was used to quench excess active succinimide ester groups.
Six buffer blanks were first injected to equilibrate the instrument fully and then a solvent correction curve was performed followed by a further two blank injections. […] Using a flow rate of 50 μl/min, compounds were injected for 60 s and dissociation was monitored for 180 s. The data collection rate was 10 Hz. Kds were determined using the BiaEvaluation software (Biacore) and calculated from both the response of the eIF4E coated CM5 chips at equilibrium and also kinetically from the dissociation and association phase data for each of the peptides. Both the equilibrium and kinetic data were fitted to 1:1 binding models. Each individual peptide Kd was determined from three separate titrations. Within each titration at least two concentration points were duplicated to ensure stability and robustness of the chip surface.

Question: Which Kd does the source give for B1 here?
Answer: 26000 nM

Question: How did the Kd turn out when B2 was run?
Answer: 85 nM

Question: How did the “Fold change (KD against EE-2)” value turn out when B3 was run?
Answer: 0.5 fold

Question: And the Kd?
Answer: 109 nM

Question: With B4 as the binder, how does the “Fold change (KD against EE-2)” value read?
Answer: 0.9 fold

Question: And the Kd?
Answer: 190 nM

Question: B5 was tested. Which Kd did it give?
Answer: 5900 nM

Question: With B6 as the binder, how does the Kd read?
Answer: 2500 nM

Question: Which Kd does the source give for B7 here?
Answer: 350 nM

Question: How did the Kd turn out when B8 was run?
Answer: 2600 nM

Question: For B9, which “Fold change (KD against EE-2)” value is on record?
Answer: 1.9 fold

Question: And the Kd?
Answer: 400 nM

Question: B10 was tested. Which Kd did it give?
Answer: 137 nM

Question: B11 was tested. Which Kd did it give?
Answer: 1600 nM

Question: Which Kd does the source give for B12 here?
Answer: 35000 nM

Question: How did the Kd turn out when B13 was run?
Answer: 4200 nM

Question: For B14, which “Fold change (KD against EE-2)” value is on record?
Answer: 0.4 fold

Question: What about the Kd of the same binder?
Answer: 79 nM

Question: How did the Kd turn out when B15 was run?
Answer: 520 nM

Biological target: T1, elongation initiation factor 4E (eIF4E)
Experiment: competitive fluorescence anisotropy, panel 'Peptide Interaction Site': displacement of the FAM labelled tracer peptide …-(FAM) (50 nM) from eIF4E (200 nM) [cont'd) B]
Method: Apparent Kd values were then determined for a variety of molecules via competitive anisotropy experiments.
[L]ₛₜ and [L]ₜ denote labeled ligand and total unlabeled ligand input concentrations, respectively. Kd2 is the dissociation constant of the interaction between the unlabelled ligand and the protein. In all competitive types of experiments, it is assumed that [P]ₜ>[L]ₛₜ, otherwise considerable amounts of free labeled ligand would always be present and would interfere with measurements. Kd1 is the apparent Kd for the labeled peptide used in the respective experiment. […] Readings were carried out with a Envision Multi-label Reader (PerkinElmer). […] All titrations were carried out in triplicate. Curve-fitting was carried out using Prism 4.0 (GraphPad).

Question: How did the “IC50 (read off the curve)” value turn out when B16 was run?
Answer: ~400 nM
